Measured values taken from doi:10.1101/2022.10.10.511578 (bioRxiv, 2022).
No end group written: not given here.

T1: arrestin2^1-418 (C150L, C242V, C251V, C269S) (human)
T1 chain: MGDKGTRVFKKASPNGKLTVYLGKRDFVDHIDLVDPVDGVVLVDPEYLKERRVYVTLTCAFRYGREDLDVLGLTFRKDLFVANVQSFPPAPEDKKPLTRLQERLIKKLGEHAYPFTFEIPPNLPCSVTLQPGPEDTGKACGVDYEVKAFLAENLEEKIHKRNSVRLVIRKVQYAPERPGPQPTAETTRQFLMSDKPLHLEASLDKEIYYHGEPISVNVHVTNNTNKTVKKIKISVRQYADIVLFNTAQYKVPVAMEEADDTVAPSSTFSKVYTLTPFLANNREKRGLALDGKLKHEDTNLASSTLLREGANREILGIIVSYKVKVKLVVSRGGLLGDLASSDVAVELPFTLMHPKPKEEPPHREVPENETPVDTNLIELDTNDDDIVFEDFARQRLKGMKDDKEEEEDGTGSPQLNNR

T2: arrestin2^1-393 (human)
T2 chain: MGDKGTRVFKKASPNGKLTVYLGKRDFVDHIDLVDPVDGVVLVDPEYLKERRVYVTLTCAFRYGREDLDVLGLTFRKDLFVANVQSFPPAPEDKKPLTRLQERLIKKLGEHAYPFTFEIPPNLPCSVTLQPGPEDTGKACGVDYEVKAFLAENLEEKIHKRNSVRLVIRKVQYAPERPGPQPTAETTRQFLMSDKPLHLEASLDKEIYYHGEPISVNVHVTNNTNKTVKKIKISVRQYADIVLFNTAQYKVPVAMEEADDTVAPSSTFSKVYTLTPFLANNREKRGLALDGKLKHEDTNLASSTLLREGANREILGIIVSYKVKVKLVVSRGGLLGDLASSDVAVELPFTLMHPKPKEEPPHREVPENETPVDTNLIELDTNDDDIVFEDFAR

T3: arrestin2^1-359 (human)
T3 chain: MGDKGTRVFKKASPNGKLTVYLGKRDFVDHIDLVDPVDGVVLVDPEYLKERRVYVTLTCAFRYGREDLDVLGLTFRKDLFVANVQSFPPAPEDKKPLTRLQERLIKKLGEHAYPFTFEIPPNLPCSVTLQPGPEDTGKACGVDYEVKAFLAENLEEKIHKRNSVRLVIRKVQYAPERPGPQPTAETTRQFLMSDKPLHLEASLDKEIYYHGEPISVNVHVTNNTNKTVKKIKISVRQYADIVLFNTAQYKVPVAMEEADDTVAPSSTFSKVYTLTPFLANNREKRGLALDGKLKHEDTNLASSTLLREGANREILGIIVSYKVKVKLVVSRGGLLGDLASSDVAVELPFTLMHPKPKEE


Tests used:
[1] = molecular target: T1, arrestin2^1-418 (C150L, C242V, C251V, …); assay: SEC
[2] = molecular target: T2, arrestin2^1-393; assay: NMR titration
[3] = molecular target: T3, arrestin2^1-359; assay: crystal structure

| Binder | binding result [1] | Kd [2] [µM] | fold lower affinity (than 6P or V2Rpp) [2] [fold] | binding result [3] |
| --- | --- | --- | --- | --- |
| APERASSVYTRSTGEQEISVGL (also: phosphopeptide (3P2), sites not given here) [CCR5 3P2 phosphopeptide] | binds | > 100 | > 4 | – |
| APERASSVYTRSTGEQEISVGL (also: three-fold phosphorylated, sites not given here) [CCR5 3P1 phosphopeptide] | – | > 100 | – | – |
| APERASSVYTRSTGEQEISVGL (not fully specified; five-fold phosphorylated; comprising pT343; whole pattern in Figure 1C) [CCR5 5P2 phosphopeptide] | – | 54 ± 6 | – | – |
| APERASSVYTRSTGEQEISVGL (also: phosphopeptide (6P), sites not given here) [CCR5 6P phosphopeptide] | binds | 45 ± 6 | – | binds |

Continued, values first:

| binding result [1] | Kd [2] [µM] | fold lower affinity (than 6P or V2Rpp) [2] [fold] | binding result [3] | Binder |
| --- | --- | --- | --- | --- |
| – | 147 ± 7 | – | – | APERASSVYTRSTGEQEISVGL (also: five-fold phosphorylated, lacking pT343, sites not given here) [CCR5 5P1 phosphopeptide] |
| – | > 100 | – | binds | APERASSVYTRSTGEQEISVGL (also: phosphopeptide (4P), sites not given here) [CCR5 4P phosphopeptide] |
